IntAct's records for PubMed 23957209

B1: NADPH oxidase activator 1 (Homo sapiens), Q86UR1 (parent)
chain: MASLGDLVRAWHLGAQAVDRGDWARALHLFSGVPAPPARLCFNAGCVHLLAGDPEAALRAFDQAVTKDTCMAVGFFQRGVANFQLARFQEALSDFWLALEQLRGHAAIDYTQLGLRFKLQAWEVLHNVASAQCQLGLWTEAASSLREAMSKWPEGSLNGLDSALDQVQRRGSLPPRQVPRGEVFRPHRWHLKHLEPVDFLGKAKVVASAIPDDQGWGVRPQQPQGPGANHDARSLIMDSPRAGTHQGPLDAETEVGADRCTSTAYQEQRPQVEQVGKQAPLSPGLPAMGGPGPGPCEDPAGAGGAGAGGSEPLVTVTVQCAFTVALRARRGADLSSLRALLGQALPHQAQLGQLSYLAPGEDGHWVPIPEEESLQRAWQDAAACPRGLQLQCRGAGGRPVLYQVVAQHSYSAQGPEDLGFRQGDTVDVLCEVDQAWLEGHCDGRIGIFPKCFVVPAGPRMSGAPGRLPRSQQGDQP
partner: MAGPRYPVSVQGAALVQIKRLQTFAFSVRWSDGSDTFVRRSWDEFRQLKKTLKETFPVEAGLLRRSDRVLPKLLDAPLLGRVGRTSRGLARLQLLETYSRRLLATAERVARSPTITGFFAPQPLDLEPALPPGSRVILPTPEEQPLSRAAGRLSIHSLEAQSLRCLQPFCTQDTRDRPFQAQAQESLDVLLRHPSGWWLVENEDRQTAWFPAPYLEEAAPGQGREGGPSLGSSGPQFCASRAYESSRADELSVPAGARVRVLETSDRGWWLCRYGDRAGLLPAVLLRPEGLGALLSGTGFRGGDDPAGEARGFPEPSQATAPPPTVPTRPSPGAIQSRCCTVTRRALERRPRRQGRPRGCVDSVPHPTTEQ
B2: NADPH oxidase organizer 1 (Homo sapiens), Q8NFA2-3 (parent)
chain: B1 partner
partner: B1 chain
B3: Cytochrome b-245 light chain (Homo sapiens), P13498 (parent)
chain: MGQIEWAMWANEQALASGLILITGGIVATAGRFTQWYFGAYSIVAGVFVCLLEYPRGKRKKGSTMERWGQKYMTAVVKLFGPFTRNYYVRAVLHLLLSVPAGFLLATILGTACLAIASGIYLLAAVRGEQWTPIEPKPRERPQIGGTIKQPPSNPPPRPPAEARKKPSEEEAAVAAGGPPGGPQVNPIPVTDEVV
partner: B1 partner
B4: NADPH oxidase organizer 1 (Homo sapiens), Q8NFA2-3 (parent)
chain: B1 partner
partner: B3 chain
B5: NADPH oxidase organizer 1 (Homo sapiens), Q8NFA2-3 (parent)
chain: B1 partner
partner: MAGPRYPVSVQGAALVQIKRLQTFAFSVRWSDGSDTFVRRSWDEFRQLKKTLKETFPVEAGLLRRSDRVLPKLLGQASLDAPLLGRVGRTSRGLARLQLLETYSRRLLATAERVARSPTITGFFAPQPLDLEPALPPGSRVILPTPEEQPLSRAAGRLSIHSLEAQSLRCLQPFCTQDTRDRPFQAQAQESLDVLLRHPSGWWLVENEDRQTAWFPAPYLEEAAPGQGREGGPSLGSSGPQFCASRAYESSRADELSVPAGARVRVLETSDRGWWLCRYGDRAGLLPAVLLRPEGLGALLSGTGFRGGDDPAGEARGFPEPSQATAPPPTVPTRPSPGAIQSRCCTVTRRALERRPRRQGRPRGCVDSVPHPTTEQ

Variants of: B1
Conditions: with NOXO1, Q8NFA2-3
In the case of W436R, the “effect of a mutation on the interaction” value is reported as “disrupting interaction”.

Variants of: B2
Conditions: with noxa1_human NOXA1, Q86UR1
For T341A, the “effect of a mutation on the interaction” value was “disrupting interaction”.

Variants of: B2
Conditions: with noxa1_human NOXA1, Q86UR1
Remark: another data set of the same source
For T341D, the “effect of a mutation on the interaction” value was “increasing interaction”.

Variants of: B2
Conditions: with noxa1_human NOXA1, Q86UR1
Remark: another data set of the same source
With T341E the “effect of a mutation on the interaction” value was “increasing interaction”.

Variants of: B2
Conditions: with noxa1_human NOXA1, Q86UR1
Remark: another data set of the same source
In the case of T343A, the “effect of a mutation on the interaction” value is reported as “disrupting interaction”.

Variants of: B3
Conditions: with NOXO1, Q8NFA2-3
With P156Q the “effect of a mutation on the interaction” value was “disrupting interaction”.

Variants of: B4
Conditions: with cy24a_human CYBA
In the case of S195D, the “effect of a mutation on the interaction” value is reported as “decreasing interaction”.

Variants of: B4
Conditions: with cy24a_human CYBA, P13498
With S195A the “effect of a mutation on the interaction” value was “decreasing interaction”.

Variants of: B4
Conditions: with cy24a_human CYBA
Remark: another data set of the same source
For S195E, the “effect of a mutation on the interaction” value was “decreasing interaction”.

Variants of: B5
Conditions: with noxo1_human NOXO1, Q8NFA2
With W197R the “effect of a mutation on the interaction” value was “disrupting interaction”.
